In patent publication US20060193821, “Aptamers to the human IL-12 cytokine family and their use as autoimmune disease therapeutics” (published 2006):

Tests used:
Settings in all cases: tags: R&D Systems, carrier free
[1] = biological target: T1, IL-23 (human, p19/p40 heterodimer) (Homo sapiens, UniProt Q9NPF7;P29460 SEQ:20-189,SEQ:23-328); test: filter; 100 nM IL-23
[2] = biological target: T1, IL-23 (human, p19/p40 heterodimer); test: filter; DPBS Ca Mg
Experimental: The selection progress was monitored using the dot blot sandwich filter binding assay as described in Example 1A. The 5′-³²P-labeled pool RNA was refolded at 90° C. for 3 minutes and cooled to room temperature for 10 minutes. Next, pool RNA (trace concentration) was incubated with h-IL-23 DPBS plus 0.1 mg/mL tRNA for 30 minutes at room temperature and then applied to a nitrocellulose and nylon filter sandwich in a dot blot apparatus (Schleicher and Schuell). The percentage of pool RNA bound to the nitrocellulose was calculated and monitored approximately every 3 rounds with a single point screen (+/−250 nM h-IL-23). Pool KD measurements were measured using a titration of h-IL-23 protein (R&D, Minneapolis, Minn.) and the dot blot apparatus as described above.
The rRmY h-IL-23 selection was enriched for h-IL-23 binding vs. the naïve pool after 4 rounds of selection (data not shown). The selection stringency was increased and the selection was continued for 8 more rounds. […] The rGmH selection was enriched over the naïve pool binding at Round 10. […] FIG. 7 is a binding curve of rRmY and rGmH pool selection binding to h-IL-23. The pools were cloned using TOPO TA cloning kit (Invitrogen, Carlsbad, Calif.) and individual sequences were generated and tested for binding. A single point binding screen was initially performed on all crude rRmY clone transcriptions using a 1:200 dilution, +/−200 nM IL-23, plus 0.1 mg/mL competitor tRNA. […] The 10 point screen was performed using zero to 480 nM IL-23 in 3 fold serial dilutions. Binding curves were generated (KaleidaGraph v. 3.51, Synergy Software) and KDs were estimated by fitting the data to the equation: fraction RNA bound=amplitude[h-IL-23]/KD+[h-IL-23]). […] There was one group of 6 duplicate sequences and 4 pairs of 2 duplicate sequences out of the rRmY clones generated. […] Clones were also tested from 48 crude rGmH clone transcriptions at a 1:200 dilution and 0.1 mg/mL tRNA was used as competitor.

[3] = biological target: T1, IL-23 (human, p19/p40 heterodimer); test: filter; -tRNA
Experimental: These molecules were gel purified and assayed for IL-23 binding using the dot blot assay as described above and compared to each other and to the parent molecule, ARC979. An 8 point IL-23 titration (0 nM to 300 nM, 3 fold serial dilutions) was used in the binding assay.

T1 sequence (Q9NPF7 20-189, chain 1 of 2): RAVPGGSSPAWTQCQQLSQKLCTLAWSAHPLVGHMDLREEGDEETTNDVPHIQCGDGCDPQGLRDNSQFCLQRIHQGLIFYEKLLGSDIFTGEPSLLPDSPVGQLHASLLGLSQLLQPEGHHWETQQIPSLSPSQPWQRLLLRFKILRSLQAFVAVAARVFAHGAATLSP
T1 sequence (P29460 23-328, chain 2 of 2): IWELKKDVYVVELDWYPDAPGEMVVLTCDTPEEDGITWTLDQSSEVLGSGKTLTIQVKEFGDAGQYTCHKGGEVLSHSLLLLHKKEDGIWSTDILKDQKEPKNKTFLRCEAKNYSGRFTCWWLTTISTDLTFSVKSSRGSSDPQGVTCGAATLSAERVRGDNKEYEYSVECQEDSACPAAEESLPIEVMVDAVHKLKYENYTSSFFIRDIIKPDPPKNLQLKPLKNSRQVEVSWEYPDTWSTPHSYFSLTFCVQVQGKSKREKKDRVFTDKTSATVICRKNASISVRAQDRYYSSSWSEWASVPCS

Row | Binder | binding signal [1] | Kd [2] [nM] | also measured
1 | GGAAUCAUACCGAGAGGUAUUACCCCGAAAGGGGACCAUUCC (ssRNA, 2'-F C,U) [Type 2.1] | 5.2 +/- ratio |  | 
2 | GGAGUCUGAGUACUCAGCGUCCGUAAGGGAUAUGCUCCGCCAGACUCC (ssRNA, 2'-F C,U) [A10.min2] | 6 +/- ratio |  | 
3 | rRmY clone SEQ 74 (ssRNA, 2'-OMe C,U) RNA: GGGAGAGGAGAGAACGUUCUACGGUAAAGCAGGCUGACUGAAAGGUUGAAGUCGCUGUCGAUCGAUCGAUCGAUG |  | 257 | 
4 | C11.1 (ssRNA, 2'-F C,U) RNA: GGAAGAAUGGUCGGAAUCUCUGGCGCCACGCUGAGUAUAGACGGAAGCUCCGCCAGA | 3.5 +/- ratio |  | 
5 | rRmY clone SEQ 87 (ssRNA, 2'-OMe C,U) RNA: AGGAGAGGAGAGAACGUUCUACUAGAAGCAGGCUCGAAUACAAUUCGGAAGUCGCUGUCGAUCGAUCGAUCGAUG |  | 122 | 
6 | GGAGGCGCCACGCUGAGUAUAGACGGAAGCUCCGCCUCC (ssRNA, 2'-F C,U) [C11.2] | 2.3 +/- ratio |  | 
7 | B10.min1 (ssRNA, 2'-F C,U) RNA: GGAGCGAAUCAUACACAAGAAGUGCUUCAUGCGGCAAACUGCAUGACGUCGAAUAGAUAUGCUCC | 33.9 +/- ratio |  | 
8 | A10.min1 (ssRNA, 2'-F C,U) RNA: GGAGAUCAUACACAAGAAGUUUUUUGUGCUCUGAGUACUCAGCGUCCGUAAGGGAUCUCC | 3.1 +/- ratio |  | 
9 | rRmY clone SEQ 86 (ssRNA, 2'-OMe C,U) RNA: GGGAGAGGAGAGAACGUUCUACUAAUGCAGGCUCAGUUACUACUGGAAGUCGCUGUCGAUCGAUCGAUCGAUG |  | 219 | 
10 | rRmY clone SEQ 77 (ssRNA, 2'-OMe C,U) RNA: GGGAGAGGAGAGAACGUUCUACAACAAAGCAGGCUCAUAGUAAUAUGGAAGUCGCUGUCGAUCGAUCGAUCGAUG |  | 259 | 
11 | rRmY clone SEQ 84 (ssRNA, 2'-OMe C,U) RNA: GGGAGAGGAGAGAACGUUCUACGGAAAAAGAUAUGAAAGAAAGGAUUAAGAGACGCUGUCGAUCGAUCGAUCGAUG |  | 602 | 
12 | GGAGUCUGAGUACUCAGCGUCCCGAGAGGGGAUAUGCUCCGCCAGACUCC (ssRNA, 2'-F C,U) [A10.min4] | 0.7 +/- ratio |  | 
13 | rRmY clone SEQ 79 (ssRNA, 2'-OMe C,U) RNA: GGGAGAGGAGAGAACGUUCUACAAAAGGCAGGCUCAGGGGAUCACUGGAAGUCGCUGUCGAUCGAUCGAUCGAUG |  | 807 | 
14 | GGAAUCAUACACAAGAGUGUAUUACCCCCAACCCAGGGGGACCAUUCC (ssRNA, 2'-F C,U) [D9.1] | 3.9 +/- ratio |  | 
15 | C10.1 (ssRNA, 2'-F C,U) RNA: GGACACAAGAGAUGUAUUCAGGCGGUCCGCAUUGAUGUCAGUUAUGCGUAGCUCCGCC | 4.4 +/- ratio |  | 
16 | ACAGGCAAGUAAUUGGGGAGUGCGGGCGGGGUGU (mixed, deoxy A,G; 2'-OMe C,U; PS 12-13 [PS between 12-13; 2'-OMe C,U at 2,6,10,13,14,21,23,27,32,34; deoxy A,G at all other positions]) [ARC1157] |  |  | Kd [3]: 69 nM

Row | Binder | binding signal [1] | Kd [2] [nM] | also measured
17 | ACAGGCAAGUAAUUGGGGAGUGCGGGCGGGGUGU (mixed, deoxy A,G; 2'-OMe C,U; PS 32-33 [PS linkage 32-33; 2'-OMe C,U at 2,6,10,13,14,21,23,27,32,34; all A,G 2'-deoxy]) [ARC1168] |  |  | Kd [3]: 82 nM
18 | ACAGGCAAGUAAUUGGGGAGUGCGGGCGGGGUGU (mixed, deoxy A,G; 2'-OMe C,U; PS 22-23 [PS between 22-23; 2'-OMe C,U at 2,6,10,13,14,21,23,27,32,34; deoxy A,G at all other positions]) [ARC1164] |  |  | Kd [3]: 79 nM
19 | ACAGGCAAGUAAUUGGGGAGUGCGGGCGGGGUGU (mixed, deoxy A,G; 2'-OMe C,U; PS 14-15 [PS between 14-15; 2'-OMe C,U at 2,6,10,13,14,21,23,27,32,34; deoxy A,G at all other positions]) [ARC1159] |  |  | Kd [3]: 77 nM
20 | ACAGGCAAGUAAUUGGGGAGUGCGGGCGGGGUGU (mixed, deoxy A,G; 2'-OMe C,U; PS 33-34 [PS linkage 33-34; 2'-OMe C,U at 2,6,10,13,14,21,23,27,32,34; all A,G 2'-deoxy]) [ARC1169] |  |  | Kd [3]: 74 nM
21 | rRmY clone SEQ 73 (ssRNA, 2'-OMe C,U) RNA: GGGAGAGGAGAGAACGUUCUACAAAUGAGAGCAGGCCGAAAAGGAGUCGCUCGCUGUCGAUCGAUCGAUCGAUG |  | 101 | 
22 | rRmY clone SEQ 72 (ssRNA, 2'-OMe C,U) RNA: GGGAGAGGAGAGAACGUUCUACAAAUGAGAGCAGGCCGAAAAGGAGUCGCUCGCUGUCGAUCGAUCGAUCGAUG |  | 211 | 
23 | rRmY clone SEQ 81 (ssRNA, 2'-OMe C,U) RNA: GGGAGAGGAGAGAACGUUCUACGAAUGAGAGCAGGCCGAAAAGGAGUCGCUCGCUGUCGAUCGAUCGAUCGAUG |  | 303 | 
24 | rRmY clone SEQ 78 (ssRNA, 2'-OMe C,U) RNA: GGGAGAGGAGAGAACGUUCUACAAAAGAGAGCAGGCCGAAAAGGAGUCGCUCGCUGUCGAUCGAUCGAUCGAUG |  | 124 | 
25 | rRmY clone SEQ 71 (ssRNA, 2'-OMe C,U) RNA: GGGAGAGGAGAGAACGUUCUACAAAUGAGAGCAGGCCGAAGAGGAGUCGCUCGCUGUCGAUCGAUCGAUCGAUG |  | 124 | 
26 | GGUUAAAUCUCAUCGUCCCCGUUUGGGGAU (ssRNA, 2'-F C,U) [F11.min1] | 0.6 +/- ratio |  | 
27 | rRmY clone SEQ 82 (ssRNA, 2'-OMe C,U) RNA: GGGAGAGGAGAGAACGUUCUACGAGAGGCAAGAGAGAGUCGCAUAAAAAAGACGCUGUCGAUCGAUCGAUCGAUG |  | 199 | 
28 | GGCAUACACGAGAGUGCUGUCGAAAGACUCGGCCGAGAGGCUAUGCC (ssRNA, 2'-F C,U) [Type 1.1] | 0.9 +/- ratio |  | 
29 | GGCAUACGCGAGAGCGCUGGCGAAAGCCUCGGCCGAGAGGCUAUGCC (ssRNA, 2'-F C,U) [Type 1.2] | 0.7 +/- ratio |  | 
30 | GGAUACCCGAGAGGGCUGGCGAAAGCCUCGGCGAGAGCUAUCC (ssRNA, 2'-F C,U) [Type 1.3] | 0.6 +/- ratio |  | 
31 | GGAUCAUACACAAGAAGUGCUUCACGAAAGUGACGUCGAAUAGAUCC (ssRNA, 2'-F C,U) [B10.min3] | 0.8 +/- ratio |  | 
32 | rRmY clone SEQ 75 (ssRNA, 2'-OMe C,U) RNA: GGGAGAGGAGAGAACGUUCUACAGGUUAAGAGCAGGCUCAGGAAUGGAAGUCGCUGUCGAUCGAUCGAUCGAUG |  | 479 | 
